Test results reported in PMC4303003, “Repressive mutations restore function-loss caused by the disruption of trimerization in Escherichia coli multidrug transporter AcrB” (Frontiers in Microbiology, 2015).

Target: the molecule itself
Assay: native gel or EMSA; BN-PAGE of purified AcrB proteins; loading buffer with 1% dodecylmaltoside, 0.1% Coomassie G-250, pH 7.0; 4-15% gradient gel, 15 mA, 4°C, 2 h; trimer and monomer bands quantified with ImageJ; trimer to monomers

B1: wild type AcrB (Escherichia coli multidrug transporter AcrB) (natural protein)
chain: MPNFFIDRPIFAWVIAIIIMLAGGLAILKLPVAQYPTIAPPAVTISASYPGADAKTVQDTVTQVIEQNMNGIDNLMYMSSNSDSTGTVQITLTFESGTDADIAQVQVQNKLQLAMPLLPQEVQQQGVSVEKSSSSFLMVVGVINTDGTMTQEDISDYVAANMKDAISRTSGVGDVQLFGSQYAMRIWMNPNELNKFQLTPVDVITAIKAQNAQVAAGQLGGTPPVKGQQLNASIIAQTRLTSTEEFGKILLKVNQDGSRVLLRDVAKIELGGENYDIIAEFNGQPASGLGIKLATGANALDTAAAIRAELAKMEPFFPSGLKIVYPYDTTPFVKISIHEVVKTLVEAIILVFLVMYLFLQNFRATLIPTIAVPVVLLGTFAVLAAFGFSINTLTMFGMVLAIGLLVDDAIVVVENVERVMAEEGLPPKEATRKSMGQIQGALVGIAMVLSAVFVPMAFFGGSTGAIYRQFSITIVSAMALSVLVALILTPALCATMLKPIAKGDHGEGKKGFFGWFNRMFEKSTHHYTDSVGGILRSTGRYLVLYLIIVVGMAYLFVRLPSSFLPDEDQGVFMTMVQLPAGATQERTQKVLNEVTHYYLTKEKNNVESVFAVNGFGFAGRGQNTGIAFVSLKDWADRPGEENKVEAITMRATRAFSQIKDAMVFAFNLPAIVELGTATGFDFELIDQAGLGHEKLTQARNQLLAEAAKHPDMLTSVRPNGLEDTPQFKIDIDQEKAQALGVSINDINTTLGAAWGGSYVNDFIDRGRVKKVYVMSEAKYRMLPDDIGDWYVRAADGQMVPFSAFSSSRWEYGSPRLERYNGLPSMEILGQAAPGKSTGEAMELMEQLASKLPTGVGYDWTGMSYQERLSGNQAPSLYAISLIVVFLCLAALYESWSIPFSVMLVVPLGVIGALLAATFRGLTNDVYFQVGLLTTIGLSAKNAILIVEFAKDLMDKEGKGLIEATLDAVRMRLRPILMTSLAFILGVMPLVISTGAGSGAQNAVGTGVMGGMVTATVLAIFFVPVFFVVVRRRFSRKNEDIEHSHTVDHH
notes: AcrB, inner membrane RND multidrug transporter of Escherichia coli, encoded on plasmid pQE70-AcrB; also called WT AcrB; WT; source: E. coli BW25113ΔacrB transformed with pQE70-AcrB (in cells for cross-linking); purified as described (Lu et al., 2011) for BN-PAGE
**Q.** Does B1 bind?
**A.** binds
